The text below walks through data of patent publication US20160264650A1 (Regeneron, published 2016).

Experiment [1] deals with T1, CBD-toxin A-Fc (Clostridium difficile, UniProt P16154 1848-2710).
T1 construct: also called CBD-A; C-term Toxin A
Nature of the experiment: SPR Biacore, mAb captured, 100 nM CBD-A-Fc flowed.

Experiment [2] addresses T2, CBD-toxin B-Fc (Clostridium difficile, UniProt P18177 1851-2366).
T2 construct: also called CBD-B; C-term Toxin B
Nature of the experiment: SPR Biacore, mAb capture and CBD-Fc capture formats. On the technique in general: SPR reads the build-up and loss of mass on a sensor chip optically.

In experiment [3] the target is T1, CBD-toxin A-Fc. The description is as above.
For experiment [4], the target named is T3, Clostridium difficile toxin B, soluble full-length (TechLab) (Clostridium difficile, UniProt P18177 2-2366).
T3 construct: also called tcdB
Kind of experiment: SPR Biacore T200, 37C, mAb capture.

Experiment [5] deals with T4, Clostridium difficile toxin A, soluble full-length (TechLab) (Clostridium difficile, UniProt P16154 1-2710).
T4 construct: also called tcdA
Kind of experiment: SPR Biacore T200, 37C, mAb capture.

Experiment [6] has as its target T5, C-term receptor Binding Domain (CBD) of toxin A (Clostridium difficile, UniProt P16154 1848-2710).
T5 construct: also called CBD-A; recombinant CBD of toxin A
Nature of the experiment: SEC (Superose 6) of CBD and mAb mixture.

Experiment [7] has as its target T4, Clostridium difficile toxin A, soluble …. Kind of experiment: cell-based or functional assay.
Experiment [8] addresses T1, CBD-toxin A-Fc. Kind of experiment: SPR Biacore, CBD-A-Fc captured, 500 nM mAb flowed.
The target of experiment [9] is T2, CBD-toxin B-Fc. Kind of experiment: SPR Biacore, CBD-B-Fc captured, 500 nM mAb flowed.
Experiment [10] has as its target T4, Clostridium difficile toxin A, soluble …. Nature of the experiment: SPR Biacore T200, 37C, mAb capture. This is another data set of the same source.
The target is the same in experiment [11]. Kind of experiment: cell-based or functional assay. This is another data set of the same source.

Like-named read-outs stand apart in the source and are kept apart here.

B1: H2M3123N (antibody, V domains shown)
VH: DVQLVESGGDFVQPGGSLRLSCAASGVAFNDYEMNWIRQAPGKRLEWISHIDSSGTIIYYADSVKGRFTISRDSAKNSLFLQMDSLRAEDTAVYYCARERYSHYGYYYFGMDVWGQGTTVTVSS
VL: DIQMTQSPSTLSASVGDRVTITCRASQNIDNWLAWYQQKTGKAPNLLIYKASTLESGVPSRFSGSGSGTEFTLTIISLQPDDFATYYCQEYNTYSRTFGQGTKVEIK
notes: also called H2aM3123N; H1M3123N
The term Kd denotes the free concentration of one partner at which half of the binding sites on the other are occupied at equilibrium, for simple one-to-one binding. Read a high Kd as a looser complex. The term koff denotes the first-order rate constant of dissociation. As a reminder, the kon is the rate constant with which the complex forms. A low value points to slow association. As to B1, the “binding (RU)” value in experiment [1] was found to be 1 RU. For the same molecule, the binding result in [2] is listed as “no binding”. The binding result in experiment [3] is recorded as “no binding”. Also, in [4], the Kd is 1.65 nM, the “T½” value came out at 2.93 h, the off-rate (koff) was 6.54e-05 s⁻¹ and the association rate constant (kon) worked out at 39700 M⁻¹ s⁻¹. Further, in experiment [5], the Kd stood at 0.481 nM, the “T½” value was found to be 0.317 h, the koff turned out to be 0.000593 s⁻¹ and the kon came to 1.23e+06 M⁻¹ s⁻¹. Also, the binding result in experiment [6] was “no binding (tested: CBD at ~500 nM, CBD:Mab 1:5 and 1:20)”. Moreover, in [7], the “IC50, Vero cell viability (neutralization), Trial 1, 32 pM Toxin A” value (“IC50 … Trial 1, 32 pM Toxin A” below) came to 65 pM and the “IC50, Vero cell viability (neutralization), Trial 2, 32 pM Toxin A” value (shortened to “IC50 … Trial 2, 32 pM Toxin A”) turned out to be 24 pM. The “binding (RU)” value in [8] is 23 RU.

B2: H2M3121N (antibody, V domains shown)
VH: EVQLVESGGDLVQPGGSLRLSCAASGVTFRTYEMNWVRQAPGKGLEWISHISSSGDIIYYTKSVKGRFTISRDNAKNSLFLQMTSLRAEDTAVYYCARERYSQYGYYYFGMDVWGQGTTVTVSS
VL: DIQMTQSPSTLSASIGDRVTITCRASQNTDKWMAWYQQKAGKAPKLLIYKASILESGVPSRFSGSGSGTEFTLTISSLQPDDFATYYCQEYNTYFRAFGQGTKVETR
notes: also called H2aM3121N; H1M3121N
Consider B2, for which, in [1], the “binding (RU)” value was found to be 0 RU. For the same molecule, the binding result in experiment [2] is given as “no binding”. For the same molecule, in experiment [3], the binding result was “no binding”. Also, in [4], the Kd was determined as 1.24 nM, the “T½” value was 2.53 h, the koff worked out at 7.58e-05 s⁻¹ and the kon amounted to 61100 M⁻¹ s⁻¹. Moreover, in [5], the affinity, expressed as Kd, was 0.172 nM; the “T½” value came to 1.15 h; the dissociation rate constant (koff) was 0.000166 s⁻¹; the kon stood at 969000 M⁻¹ s⁻¹. Also, the binding result in experiment [6] is “no binding (tested: CBD at ~500 nM, CBD:Mab 1:5 and 1:20)”. For the same molecule, in experiment [7], the “IC50 … Trial 1, 32 pM Toxin A” value was determined as 65 pM and the “IC50 … Trial 2, 32 pM Toxin A” value was found to be 35 pM. Also, the “binding (RU)” value in experiment [8] came out at 23 RU.

B3: H1H3330P (antibody, V domains shown)
VH: QVQLVESGGGVVQPGGSLRLSCAASGFTFSSYAMHWVRQAPGKGLEWVAIIWFDGSNEDYADSVKGRFTISRDNSKNMVYLQINSLRAEDTAVYYCARSANWNYEGGPLFDYWGQGTLVTVSS
VL: DIQMTQSPSSLSASVGDRVTITCRASQTISTFLNWYQQKPGKGPELLIYTASSLQSGVPSRFSGSGSGTDFALTISSLQPEDFATYYCQQNYNDPPTFGQGTRLEIKR
On to B3, for which, in experiment [9], the “binding (RU)” value was -4 RU. For the same molecule, the “binding (RU)” value in experiment [1] worked out at 441 RU. Further, in [10], the Kd worked out at 0.547 nM, the “T½” value amounted to 1.42 h, the koff is 0.000137 s⁻¹ and the on-rate (kon) was 250000 M⁻¹ s⁻¹. In [7], the “IC50, Vero cell viability (neutralization), Trial 3, 32 pM Toxin A” value is 7 pM and the “IC50, Vero cell viability (neutralization), Trial 5, 25 pM Toxin A” value was determined as 7 pM. The “binding (RU)” value in experiment [8] was determined as 515 RU. For the same molecule, the “neutralization potency relative to control I” value in [11] is about 20 fold.

B4: H2M3124N (antibody, V domains shown)
VH: EIQLIESGGDMVQPGGSLRLSCAASGISLNSYEMNWVRQTPGMGLEWISHISSSGTSIYYANSVKGRFTIFRDSAKNSLLLQMNSLRAEDTAIYYCARERYDHSGYYYLGMDVWGLGTTVTVSS
VL: DIQMTQSPSTLSASLGDRVTITCRASQNIDNWMAWYQQKVGKAPKLLIYRASTLETGVPSRFGGSGFGTEFTLTISSLQPGDFATYYCQEYNSYFRTFGQGTKVEIK
notes: also called H2aM3124N; H1M3124N
With B4, the “binding (RU)” value in [1] is 0 RU. Moreover, the binding result in experiment [2] is reported as “no binding”. In experiment [3], the binding result was “no binding”. For the same molecule, in [4], the Kd is at most 0.00302 nM, the “T½” value turned out to be 192 h, the koff was at most 1e-06 s⁻¹ and the kon was determined as 331000 M⁻¹ s⁻¹. Also, in [5], the Kd came to 0.174 nM, the “T½” value is 0.967 h, the koff was 0.000198 s⁻¹ and the on-rate constant (kon) came to 1.14e+06 M⁻¹ s⁻¹. Also, the binding result in [6] is “no binding (tested: CBD at ~500 nM, CBD:Mab 1:5 and 1:20)”. In experiment [7], the “IC50 … Trial 1, 32 pM Toxin A” value is 41 pM and the “IC50 … Trial 2, 32 pM Toxin A” value was 21 pM. Moreover, in [8], the “binding (RU)” value amounted to 29 RU.
